Source: publication PMC7333360

How the values were obtained:
Settings in all cases: glycan lost; control: wild-type mice
[1] = breeding homozygous knock-in mice with WT
[2] = TAB1 IP and immunoblot, brain tissue
[3] = body weight at three months, n=6 per genotype
[4] = heterozygous crosses, observation of homozygous knock-in mice
[5] = heart weight per g body weight, three months

B1: TAB1 (TGF-β activated kinase-1 binding protein-1): S393A (protein)
parent chain: MAAQRRSLLQSEQQPSWTDDLPLCHLSGVGSASNRSYSADGKGTESHPPEDNWLKFRSENNCFLYGVFNGYDGNRVTNFVAQRLSAELLLGQLNTEHTEADVRRVLLQAFDVVERSFLESIDDALAEKASLQSQLPEGVPQHQLPPQYQKILERLKALEREISGGAMAVVAVLLNSKLYVANVGTNRALLCKSTVDGLQVTQLNMDHTTENEDELFRLSQLGLDAGKIKQMGVICGQESTRRIGDYKVKYGYTDIDLLSAAKSKPIIAEPEIHGAQPLDGVTGFLVLMSEGLYKALEAAHGPGQANQEIAAMIDTEFAKQTSLDAVAQAVVDRVKRIHSDTFASGGERAKFCPRHEDMTLLVRNFGYPLGEMSQPTPTPAPGGRVYPVSVPYSSAQSTSKTSVTLSLVMPSQGQMVNGSHSASTLDEATPTLTNQSPTLTLQSTNTHTQSSSSSSDGGLFRSRPAHSLPPGEDGRVEPYVDFAEFYRLWSVDHGEQSVMTAP
no change: other: fertility [1] | expression_or_secretion [2] | other: body weight [3] | other: mouse viability and development [4] | other: heart weight [5]
